We go through 2 substances from article PMC5037814.

The target in assay [1] is native bovine Casq1 (skeletal muscle calsequestrin, glycosylated) (bovine (B. taurus)). The assay is described as follows: crystal structure; high-Ca2+ form: protein incubated with 5 mM Ca2+ before mixing (2.5 mM in the drop); hanging drop, 4 °C, 0.1 M HEPES, 0.2 M NaCl, 27.5% MPD, pH 7.0.
For assay [2] the target is unchanged. The assay can be described thus: SEC-MALS; 50 µM Casq1 on Yarra 3u SEC-2000, 20 mM MOPS, 300 mM KCl, 0.05 g/dL NaN3, pH 7.2, 1 mM CaCl2.
The target is the same in assay [3]. The assay can be described thus: SEC-MALS; 50 µM Casq1 on Yarra 3u SEC-2000, 20 mM MOPS, 300 mM KCl, 0.05 g/dL NaN3, pH 7.2, 2 mM CaCl2.
Assay [4] concerns the target recombinant bovine Casq1 (non-glycosylated) (bovine (B. taurus)). The assay can be described thus: crystal structure; high-Ca2+ form: protein incubated with 5 mM Ca2+ before mixing (2.5 mM in the drop); hanging drop, 4 °C, 0.1 M HEPES, 0.2 M NaCl, 27.5% MPD, pH 7.0.
Assay [5] has the same target. The assay is described as follows: SEC-MALS; 50 µM Casq1 on Yarra 3u SEC-2000, 20 mM MOPS, 300 mM KCl, 0.05 g/dL NaN3, pH 7.2, 2 mM CaCl2.

Turning to “native bovine Casq1 (skeletal muscle calsequestrin, glycosylated) (natural protein)”, the stoichiometry N was found to be 6 in assay [1], 2 in assay [2] and 4 in assay [3].
For the substance “recombinant bovine Casq1 (non-glycosylated) (natural protein)”, the stoichiometry N worked out at 6 in assay [4] and 2 in assay [5].
